The values below come from publication PMC4072508, “Genome-Wide Prediction and Validation of Peptides That Bind Human Prosurvival Bcl-2 Proteins” (PLoS Computational Biology, 2014).

What all share (assay): peptide SPOT array, c-Myc-tagged receptor at 1 uM or 100 nM, anti-c-Myc-Cy3
The target of one assay is Bcl-xL, Q07817.
Another assay addresses T1, Bfl-1, Q16548.
T1 chain: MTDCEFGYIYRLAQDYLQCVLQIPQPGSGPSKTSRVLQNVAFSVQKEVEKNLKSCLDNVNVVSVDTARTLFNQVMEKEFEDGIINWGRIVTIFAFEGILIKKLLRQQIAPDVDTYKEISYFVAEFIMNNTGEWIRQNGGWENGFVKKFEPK

Another assay deals with T2, Mcl-1, Q07820.
T2 chain: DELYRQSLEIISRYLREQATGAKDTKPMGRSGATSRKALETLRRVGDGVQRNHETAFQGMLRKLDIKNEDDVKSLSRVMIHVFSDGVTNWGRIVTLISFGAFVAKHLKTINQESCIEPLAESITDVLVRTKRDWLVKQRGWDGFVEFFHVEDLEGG

Sequence of Bcl-xL, Q07817 (Q07817 1-209): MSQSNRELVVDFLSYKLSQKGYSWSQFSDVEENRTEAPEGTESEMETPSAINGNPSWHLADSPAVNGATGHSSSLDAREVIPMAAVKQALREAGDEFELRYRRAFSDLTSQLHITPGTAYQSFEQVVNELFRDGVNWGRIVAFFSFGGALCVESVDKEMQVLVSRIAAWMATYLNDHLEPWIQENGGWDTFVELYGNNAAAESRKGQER

Regarding LTETSLISGNLHRIGDITSCSVLWLN [FBXW5], the SPOT signal as a fraction of Bim BH3's signal on the same receptor and array in the assay with Bcl-xL, Q07817 amounted to 0.06; in the assay with Bfl-1, Q16548, 0.04; with Mcl-1, Q07820 it was 0.04.

Take TETKATFGVHDKIVGDWTERFRDLLL [NOX4]: the SPOT signal as a fraction of Bim BH3's signal on the same receptor and array in the assay with Bcl-xL, Q07817 came to 0.05; with Bfl-1, Q16548 it was 0.07; with Mcl-1, Q07820 it was 0.05.

Turning to PDKRLTLSQIYQYVADNFPFYNKSKA, the SPOT signal as a fraction of Bim BH3's signal on the same receptor and array was 1.74 with Bcl-xL, Q07817; 0.56 in the assay with Bfl-1, Q16548; 0.56 in the assay with Mcl-1, Q07820.

Take LSIIYTLVEIFQNIGDTNLADFTAGL [SLC26A4]: the SPOT signal as a fraction of Bim BH3's signal on the same receptor and array came to 0.06 with Bcl-xL, Q07817; 0.03 with Bfl-1, Q16548; 0.07 with Mcl-1, Q07820.

Turning to MSILTIASAVLEFVLDGIYNNTMGHV [TAP1], the SPOT signal as a fraction of Bim BH3's signal on the same receptor and array in the assay with Bcl-xL, Q07817 came to 0.06; with Bfl-1, Q16548, 0.04; in the assay with Mcl-1, Q07820, 0.04.

With ADAIRPRCVEDRHLCDDFINGNKKKW [MCF2L2], the SPOT signal as a fraction of Bim BH3's signal on the same receptor and array in the assay with Bcl-xL, Q07817 came out at 0.15; with Bfl-1, Q16548, 0.07; in the assay with Mcl-1, Q07820, 0.06.

Regarding LDFTFVCPTEIIAFGDRLEEFRSINT, the SPOT signal as a fraction of Bim BH3's signal on the same receptor and array with Bcl-xL, Q07817 is 0.06; with Bfl-1, Q16548 it was 0.03; with Mcl-1, Q07820, 0.04.

VHKHSRLAEVLQLGLDILPQYKQEAP [KCNH1]: the SPOT signal as a fraction of Bim BH3's signal on the same receptor and array came to 0.12 with Bcl-xL, Q07817; 0.07 in the assay with Bfl-1, Q16548; 0.14 in the assay with Mcl-1, Q07820.

Take FKAWGKFGGADCRYADEMKEIQERQR [PURB]: the SPOT signal as a fraction of Bim BH3's signal on the same receptor and array came out at 0.66 with Bcl-xL, Q07817; 0.76 with Bfl-1, Q16548; 0.83 with Mcl-1, Q07820.

As for PDKRLTLSQIDQYVADNFPFYNKSKA, the SPOT signal as a fraction of Bim BH3's signal on the same receptor and array in the assay with Bcl-xL, Q07817 worked out at 0.84; with Bfl-1, Q16548 it was 0.42; in the assay with Mcl-1, Q07820 it was 0.39.

Turning to RKDAELLCWDDRQSGYPLWSLGREVT [WRAP53], the SPOT signal as a fraction of Bim BH3's signal on the same receptor and array with Bcl-xL, Q07817 is 0.06; with Bfl-1, Q16548, 0.04; in the assay with Mcl-1, Q07820, 0.04.

PVESSWIAPELRLQSDDILPLGKDSG [DHX30]: the SPOT signal as a fraction of Bim BH3's signal on the same receptor and array with Bcl-xL, Q07817 stood at 0.05; with Bfl-1, Q16548, 0.04; with Mcl-1, Q07820 it was 0.04.

As to RLRQLGVAKKFGVLLDNFKGKRIVLV [PPAT], the SPOT signal as a fraction of Bim BH3's signal on the same receptor and array came to 1.27 with Bcl-xL, Q07817; 0.69 with Bfl-1, Q16548; 0.93 with Mcl-1, Q07820.

On to SFLSAHCASHLAWFLDSLTSLSQRLQ [TMEM214], for which the SPOT signal as a fraction of Bim BH3's signal on the same receptor and array is 0.08 in the assay with Bcl-xL, Q07817; 0.08 with Bfl-1, Q16548; 0.07 with Mcl-1, Q07820.

As to LNLLMISVAFDRVIGDQLEKLCDSLL [SLC38A8], the SPOT signal as a fraction of Bim BH3's signal on the same receptor and array is 0.05 in the assay with Bcl-xL, Q07817; 0.04 in the assay with Bfl-1, Q16548; 0.04 with Mcl-1, Q07820.

On to AELEVECATQLRRFLDKLNFRQKLLN [PMAIP1], for which the SPOT signal as a fraction of Bim BH3's signal on the same receptor and array came out at 0.2 in the assay with Bcl-xL, Q07817; 0.17 with Bfl-1, Q16548; 0.1 with Mcl-1, Q07820.

With WLKGDILGEKLVNLLDCLCNEDLESR [RNF160], the SPOT signal as a fraction of Bim BH3's signal on the same receptor and array in the assay with Bcl-xL, Q07817 is 0.07; in the assay with Bfl-1, Q16548 it was 0.05; in the assay with Mcl-1, Q07820, 0.06.

As for NDDTPWIARTDDNLADELTAILSAPA [GBP6], the SPOT signal as a fraction of Bim BH3's signal on the same receptor and array in the assay with Bcl-xL, Q07817 was found to be 0.04; with Bfl-1, Q16548, 0.03; with Mcl-1, Q07820 it was 0.04.

As to LDFTFVCPTEDIAFGDRLEEFRSINT, the SPOT signal as a fraction of Bim BH3's signal on the same receptor and array with Bcl-xL, Q07817 was determined as 0.06; in the assay with Bfl-1, Q16548, 0.03; with Mcl-1, Q07820, 0.04.

Take TGSLCEIATTLSFEGDGFLWVKSGSV [CRB1]: the SPOT signal as a fraction of Bim BH3's signal on the same receptor and array in the assay with Bcl-xL, Q07817 turned out to be 0.06; in the assay with Bfl-1, Q16548, 0.03; with Mcl-1, Q07820, 0.04.

Turning to VTLLSEVEKMLSNFGDCVQYKEIVKN [SYNE1], the SPOT signal as a fraction of Bim BH3's signal on the same receptor and array stood at 0.11 with Bcl-xL, Q07817; 0.06 with Bfl-1, Q16548; 0.08 in the assay with Mcl-1, Q07820.

For AELRLFLAQRDRWLCDSCPASRATCV [NBEAL2], the SPOT signal as a fraction of Bim BH3's signal on the same receptor and array came out at 0.34 in the assay with Bcl-xL, Q07817; 0.33 in the assay with Bfl-1, Q16548; 0.5 with Mcl-1, Q07820.
